Test results reported in article PMC10663602.

Molecular target: teleost IgM Fc (tFcµ): truncated teleost IgM heavy chain consisting of CHµ3, CHµ4 and the Tp (Oncorhynchus mykiss (rainbow trout))
Test: cryo-EM structure; purified tFcµ tetramer fractions in TBS (20 mM Tris-HCl, NaCl, pH 7.8), 0.1 mg/mL on grids; map at 2.78 Å, C2 symmetry

stoichiometry N: 4
Substance: teleost IgM Fc (tFcµ): truncated teleost IgM heavy chain consisting of CHµ3, CHµ4 and the Tp (domain or fragment)
